Consider ten substances from patent publication US20240294646A1.

The target in assay [1] is FcγRIIb (UniProt P31994). The experiment in a line: SPR; IIb-Fold divided by IIaR-Fold, selectivity for FcγRIIb over FcγRIIaR relative to wild-type. (In general: Surface plasmon resonance follows binding to a sensor surface in real time, without labels.)
The target in a further assay is FcγRIIIaF (UniProt P08637). Description: SPR, antibody captured on HER2 chip, receptor as analyte; fold change in affinity over wild-type.
The next assay addresses FcγRIa (UniProt P12314). Described as above.
For the next assay, the target named is FcγRIIaH (UniProt P12318). The assay is described as above.
The target of assay [2] is FcγRIIb (UniProt P31994). The description is as above.
Assay [3] has as its target FcγRIIaR (UniProt P12318). The description is as above.
Assay [4] has as its target FcγRIIb (UniProt P31994). The experiment in a line: SPR imaging (IBIS MX96), antibody spotted on chip, soluble receptor as analyte, kinetic fit, 25 C, pH 7.4.
For assay [5], the target named is FcγRIIaR (UniProt P12318). The description is as above.
Assay [6] deals with FcγRIIb (UniProt P31994). The experiment in a line: derived from the SPRi KDs for FcγRIIb and FcγRIIaR, relative to WT.
In assay [7] the target is Soluble FcγRIIaR extracellular domain with C-terminal 10xHis tag (UniProt P12318). The experiment in a line: SPR (Biacore 4000); variant captured on HER2, receptor in solution.
Assay [8] deals with Soluble FcγRIIb extracellular domain with C-terminal 10xHis tag (UniProt P31994). The description is as above.
The target in assay [9] is Soluble FcγRIIaR extracellular domain with C-terminal 10xHis tag (UniProt P12318). The experiment in a line: SPR; fold affinity relative to control v27293.
For assay [10], the target named is Soluble FcγRIIb extracellular domain with C-terminal 10xHis tag (UniProt P31994). Description: SPR; fold affinity relative to control v27293.
Assay [11] deals with Soluble FcγRIIaR extracellular domain with C-terminal 10xHis tag (UniProt P12318). The experiment in a line: SPR; KD of WT v16463 / KD of variant.
Assay [12] addresses Soluble FcγRIIb extracellular domain with C-terminal 10xHis tag (UniProt P31994). Description: SPR; KD of WT v16463 / KD of variant.
The target is the same in assay [13]. Description: SPR; IIb-Fold / IIaR-Fold (FcγRIIb against FcγRIIaR).
The target is the same in assay [14]. Description: SPR; IIb selectivity relative to control v27293.
Assay [15] concerns the target Soluble FcγRIIaR extracellular domain with C-terminal 10xHis tag (UniProt P12318). Description: SPR, antibody captured on immobilised HER2, soluble receptor as analyte.
Assay [16] deals with Soluble FcγRIIb extracellular domain with C-terminal 10xHis tag (UniProt P31994). The assay is described as above.
For assay [17] the target is unchanged. The experiment in a line: SPR; selectivity relative to control v27293.
Assay [18] addresses Soluble FcγRIIaR extracellular domain with C-terminal 10xHis tag (UniProt P12318). Description: SPR; fold change in affinity over WT v16463.
The target of assay [19] is Soluble FcγRIIb extracellular domain with C-terminal 10xHis tag (UniProt P31994). Description: SPR; fold change in affinity over WT v16463.
Assay [20] concerns the target Soluble FcγRIIaR extracellular domain with C-terminal 10xHis tag (UniProt P12318). Description: SPR; fold relative to control v27293.
Assay [21] deals with Soluble FcγRIIb extracellular domain with C-terminal 10xHis tag (UniProt P31994). The experiment in a line: SPR; fold relative to control v27293.
Assay [22] shares this target. Description: SPR; IIb-Fold / IIaR-Fold.
Assay [23] addresses Biotinylated FcγRIIb extracellular domain-Fc fusion (human IgG1 Fc with L234A_L235A_D265S) (human) (UniProt P31994). Description: competition electrochemiluminescence, antibody on HER2-coated plate, biotinylated FcγRIIb-Fc; competitor FcγRIIaR-Fc at 10x.
Assay [24] addresses FcγRIIb, soluble extracellular domain (UniProt P31994). The experiment in a line: SPR, Protocol 2; the wild-type reference itself.
The target in assay [25] is FcγRIIaR, soluble extracellular domain (UniProt P12318). Description: SPR, Protocol 2; the wild-type reference itself.
In assay [26] the target is FcγRIIb, soluble extracellular domain (UniProt P31994). The experiment in a line: SPR, Protocol 2; ratio of the fold on FcγRIIb to the fold on FcγRIIaR; the wild-type reference itself.
Assay [27] addresses FcγRIIb (UniProt P31994). The experiment in a line: SPR (Biacore 4000, Protocol 2), one-armed antibody captured on immobilised HER2, soluble FcγR as analyte.
Assay [28] deals with FcγRIIaR (UniProt P12318). The description is as above.
For assay [29], the target named is Soluble FcγRIIaR extracellular domain with C-terminal 10×His tag (UniProt P12318). Description: SPR (Biacore 4000), antibody captured on immobilised HER2, receptor as analyte.
The target of assay [30] is Soluble FcγRIIb extracellular domain with C-terminal 10×His tag (UniProt P31994). The description is as above.
The target of assay [31] is Biotinylated FcγRIIb extracellular domain-Fc fusion (human) (UniProt P31994). Description: competition electrochemiluminescence (MSD), antibody on HER2-coated plate, biotinylated FcγRIIb-Fc; competitor FcγRIIaR-Fc at 10x.
The target of assay [32] is Soluble FcγRIIaR extracellular domain with C-terminal 10×His tag (UniProt P12318). The experiment in a line: SPR; KD of WT v16463 / KD of variant.
The target of assay [33] is Soluble FcγRIIb extracellular domain with C-terminal 10×His tag (UniProt P31994). Description: SPR; KD of WT v16463 / KD of variant.
The target is the same in assay [34]. The experiment in a line: SPR; IIb-Fold / IIaR-Fold (FcγRIIb against FcγRIIaR).
The target of assay [35] is FcγRIIb (UniProt P31994). The experiment in a line: SPR, antibody captured on immobilised HER2, receptor as analyte; fold affinity over WT v16463.
Assay [36] has as its target FcγRIIaR (UniProt P12318). The assay is described as above.
Assay [37] has as its target FcγRIIb (UniProt P31994). The experiment in a line: SPR; IIb-Fold divided by IIaR-Fold (FcγRIIb against FcγRIIaR).
The target in assay [38] is FcγRIIb, soluble extracellular domain (UniProt P31994). The experiment in a line: SPR, Protocol 2; ratio of the fold on FcγRIIb to the fold on FcγRIIaR.
Assay [39] has the same target. Description: SPR, Protocol 2; fold over wild-type v16463.
In assay [40] the target is FcγRIIaR, soluble extracellular domain (UniProt P12318). The experiment in a line: SPR, Protocol 2; fold over wild-type v16463.
Assay [41] has as its target FcγRIIb (UniProt P31994). The experiment in a line: SPR (Protocol 2), against wild-type 16463.
Assay [42] addresses FcγRIIb (UniProt P31994). The experiment in a line: SPR (Protocol 2); selectivity for FcγRIIb against FcγRIIaR.
In assay [43] the target is FcγRIIb (UniProt P31994). The experiment in a line: SPR (Protocol 2, Biacore 4000), antibody captured on immobilised HER2, FcγR as analyte.
Assay [44] deals with FcγRIIaR (UniProt P12318). The assay is described as above.

Take “v12 (OAA), IIb-specific comparator, trastuzumab one-armed antibody with symmetrical E233D_G237D_P238D_H268D_P271G_A330R”: in the assay with FcγRIIb [1], the IIb/IIaR Selectivity (ratio (IIb-Fold/IIaR-Fold)) was 82.9. For the same substance, the FcγR Binding (Fold Change over WT) worked out at 0.1 fold over WT in the assay with FcγRIIIaF; 0 fold over WT in the assay with FcγRIa; 0.1 fold over WT with FcγRIIaH; 112 fold over WT in the assay with FcγRIIb [2]; 1.4 fold over WT in the assay with FcγRIIaR [3].
Turning to “v12 (IIb-specific comparator, symmetrical E233D_G237D_P238D_H268D_P271G_A330R), anti-CD19 (4G7) full-size antibody”, the dissociation constant Kd (in general, the free concentration of one partner at which half of the binding sites on the other are occupied at equilibrium, for simple one-to-one binding) in the assay with FcγRIIb [4] came to 13 nM; with FcγRIIaR [5], 460 nM. This substance returned an IIb Selectivity (IIb-Fold/IIaR-Fold) with FcγRIIb [6] of 106 fold.
With “v26133 (A_N236I_strat1), one-armed trastuzumab antibody”, the figures for the Kd in [7] and in assay [8] were 8.3 nM and 2.5 nM, respectively. Further, in assay [9], the IIaR-Fold wrt Control was determined as 1.1 fold. In addition, the IIb-Fold wrt Control in [10] was 1.4 fold. The same substance returned an IIaR-fold in [11] of 37.3 fold. For the same substance, in [12], the IIb-Fold amounted to 585 fold. This substance came in with an IIb Selectivity in assay [13] of 15.7 fold. In assay [14], the IIb Selectivity Fold wrt Control stood at 1.3 fold.
Turning to “Variant 27293, Launching Module 1 (A_G236N_G237A / B_G236D_G237F_S239D_S267V_H268D_Template_1), one-armed trastuzumab antibody”, the values for the Kd in [15] and in [16] were 8.8 nM and 3.5 nM, respectively. This substance also gave an IIb Selectivity Fold wrt Control in assay [17] of 1 fold. The substance further yielded an IIaR-fold in assay [18] of 35.2 fold. Moreover, in assay [19], the IIb-Fold turned out to be 415 fold. In addition, the IIaR-Fold wrt Control in [20] turned out to be 1 fold. For the same substance, in assay [21], the IIb-Fold wrt Control turned out to be 1 fold. Also, the IIb Selectivity in assay [22] was determined as 11.8. The ELISA (% of non-competed FcγRIIb signal in presence of 10x FcγRIIa) in [23] was 70.8%.
In assay [24], “Variant 16463, wild-type control one-armed trastuzumab antibody with heterodimeric IgG1 Fc” displayed an IIb-fold (fold change in affinity over wild-type) of 1 fold. The substance also had an IIaR-fold (fold change in affinity over wild-type) in assay [25] of 1 fold. In assay [26], the IIb/IIaR Selectivity (IIb-Fold/IIaR-Fold) is 1.
With “v16463, wild-type one-armed trastuzumab antibody (OAA format)”, the figures for the dissociation constant Kd with FcγRIIb [27] and with FcγRIIaR [28] were 1400 nM and 310 nM, respectively.
With “v12, IIb-specific comparator with symmetrical E233D_G237D_P238D_H268D_P271G_A330R (antibody)”, the Kd was 220 nM in assay [29] and 13 nM in [30]. Also, the ELISA (% of non-competed FcγRIIb signal in presence of 10x FcγRIIa) in [31] worked out at 100%. Also, the IIaR-fold in [32] was determined as 1.4 fold. The substance further gave an IIb-Fold in assay [33] of 112 fold. Moreover, the IIb Selectivity in [34] was 80.5 fold.
“Variant 27362, Strat 3 control (A_G236N_G237A / B_G236D_G237F_S239D_S267V_H268D) (antibody)” returned an IIb-Fold with FcγRIIb [35] of 9 fold. The substance also had an IIaR-fold with FcγRIIaR [36] of 1 fold. In addition, the IIb Selectivity in the assay with FcγRIIb [37] came out at 9 fold.
As for “Variant 18370 (S239D), one-armed trastuzumab antibody with heterodimeric IgG1 Fc”, the IIb/IIaR Selectivity (IIb-Fold/IIaR-Fold) in assay [38] came to 1.2. The substance also showed an IIb-fold (fold change in affinity over wild-type) in assay [39] of 4.39 fold. The substance further gave an IIaR-fold (fold change in affinity over wild-type) in [40] of 3.8 fold.
In turn, “Variant 18372, control without loop replacement (chain B S239D_H268D), one-armed antibody Scaffold 2” came in with an IIb-Fold (fold change in affinity over wild-type) (fold over wild-type) with FcγRIIb [41] of 29.3. In addition, the IIb/IIaR Selectivity with FcγRIIb [42] turned out to be 1.4. Moreover, the equilibrium dissociation constant (Kd) with FcγRIIb [43] came to 39 nM; in the assay with FcγRIIaR [44], 17 nM.
